Test results from the supplement of paper PMC7877785.
± gives the uncertainty stated by the source.

Assay: self-splicing fitness, log relative to wild type (ln ratio); higher = more splicing; Tetrahymena group I intron in knt gene, E. coli kanamycin selection, DiMSum; sequences stand for … in CUCUCU…GGAGGGAAAAGUUAUCAGGCAUGCACCUGGUAGCUAGUCUUUAAACCAAUAGAUUGCAUCGGUUUAAAAGGCAAGACCGUCAAAUUGCGGGAAAGGGGUCAACAGCCGUUCAGUACCAAGUCUCAGGGGAAACUUUGAGAUGGCCUUGCAAAGGGUAUGGUAAUAAGCUGACGGACAUGGUCCUAACCACGCAGCCAAGUCCUAAGUCAACAGAUCUUCUGUUGAUAUGGAUGCAGUUCACAGACUAAAUGUCGGUCGGGGAAGAUGUAUUCUUCUCAUAAGAUAUAGUCGGACCUCUCCUUAAUGGGAGCUAGCGGAUGAAGUGAUGCAACACUGGAGCCGCUGGGAACUAAUUUGUAUGCGAAAGUAUAUUGAUUAGUUUUGGAGUACUCGUGGUCG
In short: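 A randomised library covering all eight P1ex-region intron nucleotides was built with the intron in the knt kanamycin-resistance gene on pET-22b(+) and held in E. coli BL21(DE3). Cells were grown overnight at 37°C or 30°C on LB agar, with or without 25 μg/mL kanamycin, plus 100 μg/mL carbenicillin, 50 μM IPTG and 0.2% rhamnose, and pooled colonies were amplicon-sequenced on an Illumina HiSeq 2500. DiMSum fitness is the error-weighted combination of wild-type-normalised replicate fold changes, kanamycin versus none.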

Sequence	self-splicing fitness (ln) (30 °C)	self-splicing fitness (ln) (37 °C)
GAUGAGCAAUAUUACGAUUA	-2.57 ± 0.21	-1.4 ± 0.18
GAGAAGCAAUAUUACGUCCA	-0.235 ± 0.12	0.335 ± 0.14
CUUUAGCAAUAUUACGCCAG	-1.65 ± 0.28	-0.616 ± 0.28
CUUUAGCAAUAUUACGUAUG	-0.82 ± 0.11	-0.4 ± 0.12
CUUCAGCAAUAUUACGGACG	-0.00287 ± 0.06	-0.541 ± 0.073
UCAAAGCAAUAUUACGGGAU	-2.04 ± 0.16	-2.46 ± 0.25
AAGGAGCAAUAUUACGCUUC	–	-1.88 ± 0.39
CCCUAGCAAUAUUACGGCGG	-2.6 ± 0.14	-2.42 ± 0.18
UUUAAGCAAUAUUACGUUGA	-2.17 ± 0.23	-1.5 ± 0.2
CAACAGCAAUAUUACGAACG	0.0149 ± 0.065	0.73 ± 0.084
UAAAAGCAAUAUUACGGUAC	-3.76 ± 0.16	-1.42 ± 0.16
AACCAGCAAUAUUACGCGCG	-0.385 ± 0.082	0.256 ± 0.11
CGUCAGCAAUAUUACGAAAU	-3.61 ± 0.23	-2.6 ± 0.22
CCCAAGCAAUAUUACGCAUG	-3.29 ± 0.2	-2.34 ± 0.22
UAAAAGCAAUAUUACGCACC	-2.48 ± 0.11	-1.49 ± 0.12
AGUGAGCAAUAUUACGUUUG	-3.7 ± 0.23	-2.8 ± 0.24
UACUAGCAAUAUUACGCAUA	-1.99 ± 0.14	-0.0544 ± 0.09
GACGAGCAAUAUUACGUAAA	-2.58 ± 0.18	–
CACAAGCAAUAUUACGUUGA	-3.84 ± 0.2	-1.64 ± 0.1
GUGUAGCAAUAUUACGCUGG	-3.59 ± 0.38	-1.54 ± 0.22
AGUAAGCAAUAUUACGGGUA	-2.7 ± 0.15	-1.56 ± 0.13
CGUCAGCAAUAUUACGCGCA	-1.1 ± 0.14	-0.181 ± 0.13

Sequence	self-splicing fitness (ln) (30 °C)	self-splicing fitness (ln) (37 °C)
CGAUAGCAAUAUUACGUAAG	-0.163 ± 0.066	0.259 ± 0.082
ACUGAGCAAUAUUACGUAGA	-3.68 ± 0.17	-2.51 ± 0.23
CGCUAGCAAUAUUACGGUAA	-1.73 ± 0.1	-2.12 ± 0.11
CCAGAGCAAUAUUACGGGCU	-3.24 ± 0.3	–
GGUUAGCAAUAUUACGAACU	-1.88 ± 0.27	-0.492 ± 0.34
GGCCAGCAAUAUUACGUCAC	-2.59 ± 0.34	–
AUUAAGCAAUAUUACGCGAU	-3.33 ± 0.23	-2.63 ± 0.34
CACCAGCAAUAUUACGUGUU	-4.11 ± 0.14	-2.67 ± 0.1
CCACAGCAAUAUUACGUGGC	-3.84 ± 0.12	-2.86 ± 0.12
GGAAAGCAAUAUUACGCAUC	-2.7 ± 0.17	-2.49 ± 0.31
GUCUAGCAAUAUUACGGGCU	-3.5 ± 0.27	-3.73 ± 0.3
GUGCAGCAAUAUUACGCUAG	-3.71 ± 0.31	-2.47 ± 0.32
UUUCAGCAAUAUUACGUCUU	-2.52 ± 0.17	-1.36 ± 0.13
AGGCAGCAAUAUUACGAGUA	-1.94 ± 0.15	-1.65 ± 0.14
GGGUAGCAAUAUUACGACGA	-0.202 ± 0.15	-0.379 ± 0.14
UUCUAGCAAUAUUACGGUCA	-0.883 ± 0.15	-0.729 ± 0.11
CACCAGCAAUAUUACGGUGG	-2.71 ± 0.077	-1.59 ± 0.084
AUCCAGCAAUAUUACGCAGU	-2.72 ± 0.11	-0.839 ± 0.09
CUUUAGCAAUAUUACGGUAA	-2.37 ± 0.23	-2.12 ± 0.26
UAAGAGCAAUAUUACGGCUA	-1.03 ± 0.1	-0.141 ± 0.11
ACCGAGCAAUAUUACGUAUC	–	-2.59 ± 0.25
AUUGAGCAAUAUUACGCCCG	-3.02 ± 0.47	–

Sequence	self-splicing fitness (ln) (30 °C)	self-splicing fitness (ln) (37 °C)
CUCUAGCAAUAUUACGACGG	-2.32 ± 0.18	-1.98 ± 0.29
CUAAAGCAAUAUUACGCGAA	-3.71 ± 0.25	-2.63 ± 0.36
AUGCAGCAAUAUUACGGAUU	-1.57 ± 0.071	-1.14 ± 0.1
UGUCAGCAAUAUUACGAAAC	–	-0.978 ± 0.25
AACAAGCAAUAUUACGACCA	-0.617 ± 0.086	-0.382 ± 0.12
UUUUAGCAAUAUUACGGCGG	-0.446 ± 0.16	-0.137 ± 0.15
UGGUAGCAAUAUUACGCGUU	-2.76 ± 0.13	-1.32 ± 0.12
AAUAAGCAAUAUUACGAGGC	–	-2.31 ± 0.32
UUAGAGCAAUAUUACGGCGA	0.109 ± 0.063	-0.0898 ± 0.074
CGUUAGCAAUAUUACGUCUC	–	-1.86 ± 0.35
ACACAGCAAUAUUACGCGUC	-3.69 ± 0.11	-3.32 ± 0.15
GGCAAGCAAUAUUACGCGGU	-2.97 ± 0.14	-1.37 ± 0.12
GCCGAGCAAUAUUACGUUCC	-1.3 ± 0.2	-0.589 ± 0.25
AUAGAGCAAUAUUACGUCAA	-2.19 ± 0.23	-1.77 ± 0.24
UCAGAGCAAUAUUACGUGGU	-4.35 ± 0.39	-1.78 ± 0.22
UAGCAGCAAUAUUACGCUAU	-3.88 ± 0.23	-3.49 ± 0.37
CCCUAGCAAUAUUACGCUGG	-4.39 ± 0.27	-2.89 ± 0.27
CAUAAGCAAUAUUACGCUAU	-2.93 ± 0.28	-2.99 ± 0.4
AUACAGCAAUAUUACGAAGA	-3.16 ± 0.2	-2.04 ± 0.17
GAUAAGCAAUAUUACGCUAA	-2.41 ± 0.24	-2.28 ± 0.32
CUCCAGCAAUAUUACGGAAG	-3.34 ± 0.16	-3.14 ± 0.24
